The text below walks through data of paper PMC5240932, “The Nuclear Receptor HIZR-1 Uses Zinc as a Ligand to Mediate Homeostasis in Response to High Zinc”.

Substitutions are numbered along the chain they refer to.

The target in one data set is T1, HIZR-1 G23E (Caenorhabditis elegans, UniProt G5ED47 1-412, G23E).
T1 sequence: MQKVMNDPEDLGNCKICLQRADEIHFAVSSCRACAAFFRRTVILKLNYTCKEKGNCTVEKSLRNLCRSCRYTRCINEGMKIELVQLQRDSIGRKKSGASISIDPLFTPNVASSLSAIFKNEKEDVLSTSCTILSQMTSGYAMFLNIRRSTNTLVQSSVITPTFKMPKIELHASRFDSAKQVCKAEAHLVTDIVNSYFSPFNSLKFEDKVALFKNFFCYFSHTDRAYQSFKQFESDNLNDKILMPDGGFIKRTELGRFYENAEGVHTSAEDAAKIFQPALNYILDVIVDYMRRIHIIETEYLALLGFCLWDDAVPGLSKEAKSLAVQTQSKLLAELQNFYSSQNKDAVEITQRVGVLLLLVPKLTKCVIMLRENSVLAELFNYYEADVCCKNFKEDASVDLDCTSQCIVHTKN
Description: EMSA; legend: not bound; text: dramatically reduced; Licor Odyssey EMSA Buffer Kit per manufacturer; buffer composition, salt, pH and temperature not stated. To be noted: protein: recombinant; tags: N-terminal 6xHis (pTrcHisA); label: IRDye700. On the technique in general: A gel shift assay detects complexes by their altered migration in electrophoresis.

The next data set concerns the target T2, HIZR-1 R63C (Caenorhabditis elegans, UniProt G5ED47 1-412, R63C).
T2 sequence: T1 sequence with E23G, R63C
The description is as above. To be noted: protein: recombinant; tags: N-terminal 6xHis (pTrcHisA); label: IRDye700.

Data set [1] has as its target T3, HIZR-1 WT (Caenorhabditis elegans, UniProt G5ED47 1-412).
T3 sequence: T1 sequence with E23G
The data set can be described thus: EMSA; apparent Kd; constant protein, variable labeled DNA; Licor Odyssey EMSA Buffer Kit per manufacturer; buffer composition, salt, pH and temperature not stated. To be noted: protein: recombinant; tags: N-terminal 6xHis (pTrcHisA); label: IRDye700.

Another data set concerns the target T4, HIZR-1 S30L (Caenorhabditis elegans, UniProt G5ED47 1-412, S30L).
T4 sequence: T1 sequence with E23G, S30L
Description: EMSA; legend: not bound; text: dramatically reduced; faint fast band of unknown significance; Licor Odyssey EMSA Buffer Kit per manufacturer; buffer composition, salt, pH and temperature not stated. To be noted: protein: recombinant; tags: N-terminal 6xHis (pTrcHisA); label: IRDye700.

The target of data set [2] is T3, HIZR-1 WT. Description: competition; EMSA; 5-5000 nM unlabeled mutant vs labeled HZA; does not compete; Licor Odyssey EMSA Buffer Kit per manufacturer; buffer composition, salt, pH and temperature not stated. To be noted: protein: recombinant; tags: N-terminal 6xHis (pTrcHisA).

B1: HZA WT, labeled (cdf-2 promoter) (dsDNA)
DNA 1: TGTGTTATCAATCATAAACTAGAACATGTCTCGAG
DNA 2: CTCGAGACATGTTCTAGTTTATGATTGATAACACA
With B1, the binding result with HIZR-1 G23E, with HIZR-1 R63C and in the data set with HIZR-1 S30L was “no binding” in each case. Further, the Kd in the data set with HIZR-1 WT [1] is 20.4 ± 6.8 nM.

B2: Mutant HZA, unlabeled competitor (dsDNA)
DNA 1: TGTGTTATCAGAACATACAACATTAATGTCTCGAG
DNA 2: CTCGAGACATTAATGTTGTATGTTCTGATAACACA
Consider B2, for which the binding result in the data set with HIZR-1 WT [2] is recorded as “no binding”.
